{"source": "patent US20220280663A1", "about": "“[…] TARGETED […] ACTIVE SUBSTANCE OR LABEL […] SYSTEM” (CELLIS AG, priority 2016, published 2022)", "molecules": {"B1": {"name": "ferritins: recombinant mouse ferritin protein of SEQ ID NO: 4; mammalian ferritin H and/or L homopolymers (protein)", "chain": "MTTASPSQVRQNYHQDAEAAINRQINLELYASYVYLSMSCYFDRDDVALKNFAKYFLHQSHEEREHAEKLMKLQNQRGGRIFLQDIKKPDRDDWESGLNAMECALHLEKSVNQSLLELHKLATDKNDPHLCDFIETYYLSEQVKSIKELGDHVTNLRKMGAPEAGMAEYLFDKHTLGHGD"}}, "assay_type_in_all_cases": "cell-based", "key": {"CD45^+ leukocyte cell": {"system": "CD45^+ leukocyte cell", "assay": "Uptake and storage of iron binding proteins by CD45+ leukocyte cells", "protocol": "(§1) Obtained cells are incubated in ferritin solution for a time and at the concentration sufficient to ensure proper ratio of ferritin/cell for their full load and also to ensure proper drug content to obtain therapeutic effect or contrast for proper imaging. The time and concentration may vary depending on the number of molecules encapsulated/adsorbed into the ferritin cage, status of cell activation, condition and number of their intended administration.\nFor example, to ensure proper load with ferritins, cells are incubated for 1-4 hours in ferritin solution 0.8 mg/ml in standard culture conditions. The frame of ferritin concentration may vary at least between 0.01 and 4 mg/ml as well as incubation time (5 min-6 hours or more). Adjusting time and concentration of ferritin load to cells, the influence of ferritin and treatment conditions on cell viability should be minded.\nas §1, with “haemoglobin” for “ferritin”, “haemoglobin/cell” for “ferritin/cell”, “linked with” for “encapsulated/adsorbed into”, “haemoglobin molecule,” for “ferritin cage,”, “administration. […]” for “administration.”"}, "cancer cells": {"system": "cancer cells", "assay": "Transfer of iron binding proteins from loaded leukocytes to co-cultured cancer cells", "excerpt": "However, in case of cancer cells the ratio of both cell types is crucial. The more macrophages the better and faster the transport is. The most efficient transfer to the cancer cells was observed when ratio of macrophages to cancer cells was 1:1 or more.\nThis transfer of compounds conjugated with anticancer drugs made the effect inducing apoptosis in cancer cells (FIG. 6, 13).\nHowever, the ratio of both cell types is important. The more monocytes the better and faster the transport is. The most efficient transfer to the cancer cells was observed when ratio of monocytes to cancer cells was 1:1 or more.\nHowever, the ratio of both cell types is crucial. The more granulocytes the better and faster the transport is. The most efficient transfer to the cancer cells was observed when ratio of granulocytes to cancer cells was 1:1 or more.\nHowever, the ratio of both cell types is crucial. The more lymphocytes the better and faster the transport is. The most efficient transfer to the cancer cells was observed when ratio of lymphocytes to cancer cells was 1:1 or more."}, "EMT6": {"system": "EMT6", "assay": "Ferritin transfer from RAW264.7 macrophages to EMT6 cells under oxidative stress", "excerpt": "FIG. 27: Ferritin transfer was examined in cancer cells (EMT6) co-cultured with ferritin-loaded macrophages (RAW264.7) for 2 hrs. Three experimental conditions were used: “ctrl” (normal co-culture, no stress); “EMT6 OS” when EMT6 cells were subjected to the oxidative stress before co-culture and then co-cultured with macrophages at normoxic conditions and “co-culture OS” when both cell types were subjected to the oxidative stress before the co-culture. […] It can be related with higher load of ferritin due to oxidative stress and therefore more efficient transfer, or oxidative stress triggers macrophages to more efficiently deliver ferritins to cancer cells in order to reduce oxidative stress in neighboring cells."}}, "data": [{"molecule": "B1", "values": [{"measurement": "release of absorbed ferritin to the culture medium", "setting": "CD45^+ leukocyte cell; after ferritin loading (FIG. 9)", "value": "do not release it to the culture medium"}, {"measurement": "uptake of iron binding protein by cells", "setting": "CD45^+ leukocyte cell; incubation 1-4 hours in protein solution (ferritin 0.8 mg/ml; haemoglobin, transferrin 0.1 mg/ml), standard culture conditions", "value": "very easily uptake"}, {"measurement": "specificity of transfer from macrophages: cancer cells versus non-cancer cells", "setting": "cancer cells; FIG. 11", "value": "much more specific to cancer cells than to non-cancer cells"}, {"measurement": "transport to cancer cells from granulocytes", "setting": "cancer cells; loaded granulocytes (FIG. 15)", "value": "very easily transport"}, {"measurement": "transport to cancer cells from lymphocytes", "setting": "cancer cells; loaded lymphocytes (FIG. 16)", "value": "very easily transport"}, {"measurement": "transport to cancer cells from macrophages", "setting": "cancer cells; loaded macrophages, mouse mammary, colon, canine mammary, human breast, pancreatic, bladder cancer cells", "value": "very easily transport"}, {"measurement": "transport to cancer cells from monocytes", "setting": "cancer cells; loaded monocytes (FIG. 14)", "value": "very easily transport"}, {"measurement": "ferritin received by cancer cells from macrophages versus control", "setting": "EMT6; EMT6 OS: EMT6 cells subjected to oxidative stress before 2 hrs co-culture", "value": "more ferritins than control cells"}, {"measurement": "ferritin uptake by cancer cells from macrophages", "setting": "EMT6; co-culture OS: both cell types subjected to oxidative stress before 2 hrs co-culture", "value": "even more efficient"}]}]}
